In US20140241984A1 (UNITED ARAB EMIRATES UNIVERSITY, published 2014):

T1: IAPP fibrils (UniProt P10997 34-70)
T1 construct: Amyloid fibrils of IAPP spotted in the dot blot; also called islet amyloid polypeptide
T1 peptide (looked up): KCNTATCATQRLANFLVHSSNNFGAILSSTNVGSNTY

T2: IAPP monomers (UniProt P10997 34-70)
T2 peptide (looked up): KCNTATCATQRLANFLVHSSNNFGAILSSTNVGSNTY

T3: fibrils of NAC (61-78) (human)
T3 construct: also called NAC (61-78) (F)
T3 peptide: EQVTNVGGAVVTGVTAVA

T4: α-synuclein peptide 1 (1-14) (human)
T4 construct: also called Peptide No. 1
T4 peptide: MDVFMKGLSKAKEG

T5: α-synuclein peptide 2 (8-21) (human)
T5 construct: also called Peptide No. 2
T5 peptide: LSKAKEGVVAAAEK

T6: α-synuclein peptide 3 (15-28) (human)
T6 construct: also called Peptide No. 3
T6 peptide: VVAAAEKTKQGVAE

T7: α-synuclein peptide 6 (36-49) (human)
T7 construct: also called Peptide No. 6
T7 peptide: GVLYVGSKTKEGVV

T8: α-synuclein peptide 7 (43-56) (human)
T8 construct: also called Peptide No. 7
T8 peptide: KTKEGVVHGVATVA

T9: α-synuclein peptide 8 (50-63) (human)
T9 construct: also called Peptide No. 8
T9 peptide: HGVATVAEKTKEQV

T10: α-synuclein peptide 9 (57-70) (human)
T10 construct: also called Peptide No. 9
T10 peptide: EKTKEQVTNVGGAV

T11: α-synuclein peptide 10 (64-77) (human)
T11 construct: also called Peptide No. 10
T11 peptide: TNVGGAVVTGVTAV

T12: α-synuclein peptide 11 (71-84) (human)
T12 construct: also called Peptide No. 11
T12 peptide: VTGVTAVAQKTVEG

T13: α-synuclein peptide 12 (78-91) (human)
T13 construct: also called Peptide No. 12
T13 peptide: AQKTVEGAGSIAAA

T14: α-synuclein peptide 13 (85-98) (human)
T14 construct: also called Peptide No. 13
T14 peptide: AGSIAAATGFVKKD

T15: α-synuclein peptide 14 (92-105) (human)
T15 construct: also called Peptide No. 14
T15 peptide: TGFVKKDQLGKNEE

T16: α-synuclein peptide 15 (99-112) (human)
T16 construct: also called Peptide No. 15
T16 peptide: QLGKNEEGAPQEGI

T17: α-synuclein peptide 16 (106-119) (human)
T17 construct: also called Peptide No. 16
T17 peptide: GAPQEGILEDMPVD

T18: α-synuclein peptide 17 (113-126) (human)
T18 construct: also called Peptide No. 17
T18 peptide: LEDMPVDPDNEAYE

T19: α-synuclein peptide 18 (120-133) (human)
T19 construct: also called Peptide No. 18
T19 peptide: PDNEAYEMPSEEGY


What was measured:
[1] = target: T20, A-beta fibrils (UniProt P05067 672-713, limits assumed); experiment: dot blot
T20 construct: Amyloid fibrils of A-beta spotted in the dot blot; also called β-amyloid
Method: (§1) The membranes were blocked with 5% skimmed milk in PBST (PBS containing 0.05% Tween) and incubated for 1 h at room temperature. […] The membranes were washed and incubated with either 1/20000 diluted goat anti-mouse IgG-HRP (Jackson ImmunoResearch) or 1/10000 diluted goat anti-rabbit IgG-HRP (Jackson Immunoresearch) for 1 h at room temperature. The blots were then developed with Super signal West Pico chemiluminescent substrate.
(§2) C) To test the cross reactivity of our conformational monoclonal antibodies to different fragments of α-synuclein. […] The membranes were washed before incubating with either 1/20000 diluted goat anti-mouse IgG-HRP conjugate (Jackson Immunoresearch) or 1/300000 diluted chicken anti-goat IgG-HRP conjugate (Santa Cruz Biotechnology) for 1 h at room temperature. The blots were then developed with Super signal West Pico chemiluminescent substrate.

[2] = target: T21, A-beta monomers (UniProt P05067 672-713, limits assumed); experiment: dot blot
T21 construct: also called β-amyloid monomers
Method: as §1, §2

[3] = target: T1, IAPP fibrils; experiment: dot blot
Method: as §1, §2

[4] = target: T2, IAPP monomers; experiment: dot blot
Method: as §1, §2

[5] = target: β-synuclein fibrils (UniProt Q16143 1-134); experiment: dot blot
β-synuclein fibrils, sequence (Q16143 whole entry): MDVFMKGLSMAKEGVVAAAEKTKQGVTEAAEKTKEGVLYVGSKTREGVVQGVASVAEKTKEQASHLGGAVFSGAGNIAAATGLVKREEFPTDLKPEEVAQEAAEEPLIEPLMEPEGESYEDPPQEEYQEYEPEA
Method: as §1, §2

[6] = target: β-synuclein monomers (UniProt Q16143 1-134); experiment: dot blot
β-synuclein monomers, sequence (Q16143 whole entry): as above
Method: as §1, §2

[7] = target: γ-synuclein fibrils (UniProt O76070 1-127); experiment: dot blot
γ-synuclein fibrils, sequence (O76070 whole entry): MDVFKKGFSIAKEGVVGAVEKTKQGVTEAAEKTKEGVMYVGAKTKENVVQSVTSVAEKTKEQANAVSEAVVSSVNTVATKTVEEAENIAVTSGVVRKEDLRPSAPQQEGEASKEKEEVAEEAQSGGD
Method: as §1, §2

[8] = target: γ-synuclein monomers (UniProt O76070 1-127); experiment: dot blot
γ-synuclein monomers, sequence (O76070 whole entry): as above
Method: as §1, §2

[9] = target: T22, fibrils of NAC (61-95) (human); experiment: dot blot
T22 construct: also called NAC region (61-95) (F)
Method: as §1, §2

[10] = target: T3, fibrils of NAC (61-78); experiment: dot blot
Method: as §1, §2

[11] = target: T4, α-synuclein peptide 1 (1-14); experiment: pepscan ELISA
Method: (§3) To confirm the pepscan results using dot blot the mAbs were also tested by Pepscan using ELISA. […] The plate was washed with PBST and 50 μl of substrate (SuperSignal ELISA Femto Maximum Sensitivity Substrate, Thermo Scientific) was added and immediately read the plate using Victor X3 microtiter plate reader. After the ELISA signals were measured, the plate was also exposed onto X-ray film to develop the spots.

[12] = target: T5, α-synuclein peptide 2 (8-21); experiment: pepscan ELISA
Method: as §3

[13] = target: T6, α-synuclein peptide 3 (15-28); experiment: pepscan ELISA
Method: as §3

[14] = target: T7, α-synuclein peptide 6 (36-49); experiment: pepscan ELISA
Method: as §3

[15] = target: T8, α-synuclein peptide 7 (43-56); experiment: pepscan ELISA
Method: as §3

[16] = target: T9, α-synuclein peptide 8 (50-63); experiment: pepscan ELISA
Method: as §3

[17] = target: T10, α-synuclein peptide 9 (57-70); experiment: pepscan ELISA
Method: as §3

[18] = target: T11, α-synuclein peptide 10 (64-77); experiment: pepscan ELISA
Method: as §3

[19] = target: T12, α-synuclein peptide 11 (71-84); experiment: pepscan ELISA
Method: as §3

[20] = target: T13, α-synuclein peptide 12 (78-91); experiment: pepscan ELISA
Method: as §3

[21] = target: T14, α-synuclein peptide 13 (85-98); experiment: pepscan ELISA
Method: as §3

[22] = target: T15, α-synuclein peptide 14 (92-105); experiment: pepscan ELISA
Method: as §3

[23] = target: T16, α-synuclein peptide 15 (99-112); experiment: pepscan ELISA
Method: as §3

[24] = target: T17, α-synuclein peptide 16 (106-119); experiment: pepscan ELISA
Method: as §3

[25] = target: T18, α-synuclein peptide 17 (113-126); experiment: pepscan ELISA
Method: as §3

[26] = target: T19, α-synuclein peptide 18 (120-133); experiment: pepscan ELISA
Method: as §3

binding result [5]	binding result [6]	binding result [7]	binding result [8]	binding result [9]	binding result [10]	Binder	binding result [1]	binding result [2]	binding result [3]	binding result [4]	binding result [11]	binding result [12]	binding result [13]	binding result [14]	binding result [15]	binding result [16]	binding result [17]	binding result [18]	binding result [19]	binding result [20]	further results
no binding (tested: 50 ng spotted)	no binding (tested: 50 ng spotted)	no binding (tested: 50 ng spotted)	no binding (tested: 50 ng spotted)	no binding (tested: 50 ng spotted)	no binding (tested: 50 ng spotted)	Syn-O2 (antibody, IgG1, V domains shown, same VH and VL as Syn-O1, Syn-O3, Syn-O4; also called mAb Syn-O2) VH: EVQLVESGGGLVQPKGSLKLSCAASGFTFNTYAMHWVRQAPGKGLEWVARIRSKSSNYATYYADSVKDRFTISRDDSQSMLYLQMNNLKTEDTAMYYCVRPLKWYFDVWGTGTTVTVSS VL: QIVLTQSPAILSASPGEKVTMTCSASSTVNYMHWYQQKSGTSPKIWIYDTSKLASGVPARFSGSGSWTSYSLTISSMEAEDAATYYCQQWNSNPPTFGAGTKLELK	no binding (tested: 50 ng/ml antibody, 50 ng spotted)	no binding (tested: 50 ng/ml antibody, 50 ng spotted)	no binding (tested: 50 ng/ml antibody, 50 ng spotted)	no binding (tested: 50 ng/ml antibody, 50 ng spotted)	no binding (tested: 100 ng/ml antibody, 500 ng/well peptide)	no binding (tested: 100 ng/ml antibody, 500 ng/well peptide)	no binding (tested: 100 ng/ml antibody, 500 ng/well peptide)	no binding (tested: 100 ng/ml antibody, 500 ng/well peptide)	no binding (tested: 100 ng/ml antibody, 500 ng/well peptide)	no binding (tested: 100 ng/ml antibody, 500 ng/well peptide)	no binding (tested: 100 ng/ml antibody, 500 ng/well peptide)	no binding (tested: 100 ng/ml antibody, 500 ng/well peptide)	no binding (tested: 100 ng/ml antibody, 500 ng/well peptide)	no binding (tested: 100 ng/ml antibody, 500 ng/well peptide)	binding result [21]: no binding (tested: 100 ng/ml antibody, 500 ng/well peptide); binding result [22]: no binding (tested: 100 ng/ml antibody, 500 ng/well peptide); binding result [23]: no binding (tested: 100 ng/ml antibody, 500 ng/well peptide); binding result [24]: no binding (tested: 100 ng/ml antibody, 500 ng/well peptide); binding result [25]: no binding (tested: 100 ng/ml antibody, 500 ng/well peptide); binding result [26]: no binding (tested: 100 ng/ml antibody, 500 ng/well peptide)
no binding (tested: 50 ng spotted)	no binding (tested: 50 ng spotted)	no binding (tested: 50 ng spotted)	no binding (tested: 50 ng spotted)	no binding (tested: 50 ng spotted)	no binding (tested: 50 ng spotted)	Syn-O4 (antibody, IgG1, V domains shown, same VH and VL as Syn-O1, Syn-O2, Syn-O3; also called mAb Syn-O4) VH: EVQLVESGGGLVQPKGSLKLSCAASGFTFNTYAMHWVRQAPGKGLEWVARIRSKSSNYATYYADSVKDRFTISRDDSQSMLYLQMNNLKTEDTAMYYCVRPLKWYFDVWGTGTTVTVSS VL: QIVLTQSPAILSASPGEKVTMTCSASSTVNYMHWYQQKSGTSPKIWIYDTSKLASGVPARFSGSGSWTSYSLTISSMEAEDAATYYCQQWNSNPPTFGAGTKLELK	no binding (tested: 50 ng/ml antibody, 50 ng spotted)	no binding (tested: 50 ng/ml antibody, 50 ng spotted)	no binding (tested: 50 ng/ml antibody, 50 ng spotted)	no binding (tested: 50 ng/ml antibody, 50 ng spotted)	no binding (tested: 100 ng/ml antibody, 500 ng/well peptide)	no binding (tested: 100 ng/ml antibody, 500 ng/well peptide)	no binding (tested: 100 ng/ml antibody, 500 ng/well peptide)	no binding (tested: 100 ng/ml antibody, 500 ng/well peptide)	no binding (tested: 100 ng/ml antibody, 500 ng/well peptide)	no binding (tested: 100 ng/ml antibody, 500 ng/well peptide)	no binding (tested: 100 ng/ml antibody, 500 ng/well peptide)	no binding (tested: 100 ng/ml antibody, 500 ng/well peptide)	no binding (tested: 100 ng/ml antibody, 500 ng/well peptide)	no binding (tested: 100 ng/ml antibody, 500 ng/well peptide)	binding result [21]: no binding (tested: 100 ng/ml antibody, 500 ng/well peptide); binding result [22]: no binding (tested: 100 ng/ml antibody, 500 ng/well peptide); binding result [23]: no binding (tested: 100 ng/ml antibody, 500 ng/well peptide); binding result [24]: no binding (tested: 100 ng/ml antibody, 500 ng/well peptide); binding result [25]: no binding (tested: 100 ng/ml antibody, 500 ng/well peptide); binding result [26]: no binding (tested: 100 ng/ml antibody, 500 ng/well peptide)
no binding (tested: 50 ng spotted)	no binding (tested: 50 ng spotted)	no binding (tested: 50 ng spotted)	no binding (tested: 50 ng spotted)	no binding (tested: 50 ng spotted)	no binding (tested: 50 ng spotted)	Syn-O3 (antibody, IgG1, V domains shown, same VH and VL as Syn-O1, Syn-O2, Syn-O4; also called mAb Syn-O3) VH: EVQLVESGGGLVQPKGSLKLSCAASGFTFNTYAMHWVRQAPGKGLEWVARIRSKSSNYATYYADSVKDRFTISRDDSQSMLYLQMNNLKTEDTAMYYCVRPLKWYFDVWGTGTTVTVSS VL: QIVLTQSPAILSASPGEKVTMTCSASSTVNYMHWYQQKSGTSPKIWIYDTSKLASGVPARFSGSGSWTSYSLTISSMEAEDAATYYCQQWNSNPPTFGAGTKLELK	no binding (tested: 50 ng/ml antibody, 50 ng spotted)	no binding (tested: 50 ng/ml antibody, 50 ng spotted)	no binding (tested: 50 ng/ml antibody, 50 ng spotted)	no binding (tested: 50 ng/ml antibody, 50 ng spotted)	no binding (tested: 100 ng/ml antibody, 500 ng/well peptide)	no binding (tested: 100 ng/ml antibody, 500 ng/well peptide)	no binding (tested: 100 ng/ml antibody, 500 ng/well peptide)	no binding (tested: 100 ng/ml antibody, 500 ng/well peptide)	no binding (tested: 100 ng/ml antibody, 500 ng/well peptide)	no binding (tested: 100 ng/ml antibody, 500 ng/well peptide)	no binding (tested: 100 ng/ml antibody, 500 ng/well peptide)	no binding (tested: 100 ng/ml antibody, 500 ng/well peptide)	no binding (tested: 100 ng/ml antibody, 500 ng/well peptide)	no binding (tested: 100 ng/ml antibody, 500 ng/well peptide)	binding result [21]: no binding (tested: 100 ng/ml antibody, 500 ng/well peptide); binding result [22]: no binding (tested: 100 ng/ml antibody, 500 ng/well peptide); binding result [23]: no binding (tested: 100 ng/ml antibody, 500 ng/well peptide); binding result [24]: no binding (tested: 100 ng/ml antibody, 500 ng/well peptide); binding result [25]: no binding (tested: 100 ng/ml antibody, 500 ng/well peptide); binding result [26]: no binding (tested: 100 ng/ml antibody, 500 ng/well peptide)
